Experimental data: paper PMC11670205 (Frontiers in Immunology, 2024)

Experiments:
[1] = molecular target: human TSLP receptor complex composed of IL-7Rα and TSLPR expressed on cell surface of transfected HEK293T (human) (UniProt Q9HC73)
recombinant mouse TSLP = molecular target: T1, recombinant mouse TSLP (Mus musculus, UniProt Q9JIE6); assay: ELISA; recombinant TSLP coated at 1 μg/mL in DPBS pH 7.2 overnight at 4°C; antibodies in serial 3-fold dilutions from 1 μg/mL, 2 hours at room temperature; HRP anti-human IgG detection; settings: both partners purified
T1 construct: thymic stromal lymphopoietin, mouse; also called murine TSLP; source: bought: AcroBiosystems

[2] = molecular target: T2, recombinant cynomolgus monkey TSLP (Macaca fascicularis, UniProt A0A7N9CAT7); assay: as above; settings: both partners purified
T2 construct: thymic stromal lymphopoietin, cynomolgus monkey; source: bought: AcroBiosystems

Chain of human TSLP receptor complex composed of IL-7Rα and TSLPR expressed on cell surface of transfected HEK293T (human) (Q9HC73 23-371, chain 1 of 2): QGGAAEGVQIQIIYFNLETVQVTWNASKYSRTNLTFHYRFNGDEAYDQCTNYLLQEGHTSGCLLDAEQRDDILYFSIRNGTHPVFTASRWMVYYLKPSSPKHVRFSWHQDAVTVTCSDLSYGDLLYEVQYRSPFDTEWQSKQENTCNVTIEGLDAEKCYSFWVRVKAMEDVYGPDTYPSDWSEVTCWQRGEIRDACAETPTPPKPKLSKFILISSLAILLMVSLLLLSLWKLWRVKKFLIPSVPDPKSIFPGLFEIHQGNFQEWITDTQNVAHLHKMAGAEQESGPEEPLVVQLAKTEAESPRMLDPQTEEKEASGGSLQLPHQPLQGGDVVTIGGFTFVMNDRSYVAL
Chain of human TSLP receptor complex composed of IL-7Rα and TSLPR expressed on cell surface of transfected HEK293T (human) (chain, as listed by the source, chain 2 of 2): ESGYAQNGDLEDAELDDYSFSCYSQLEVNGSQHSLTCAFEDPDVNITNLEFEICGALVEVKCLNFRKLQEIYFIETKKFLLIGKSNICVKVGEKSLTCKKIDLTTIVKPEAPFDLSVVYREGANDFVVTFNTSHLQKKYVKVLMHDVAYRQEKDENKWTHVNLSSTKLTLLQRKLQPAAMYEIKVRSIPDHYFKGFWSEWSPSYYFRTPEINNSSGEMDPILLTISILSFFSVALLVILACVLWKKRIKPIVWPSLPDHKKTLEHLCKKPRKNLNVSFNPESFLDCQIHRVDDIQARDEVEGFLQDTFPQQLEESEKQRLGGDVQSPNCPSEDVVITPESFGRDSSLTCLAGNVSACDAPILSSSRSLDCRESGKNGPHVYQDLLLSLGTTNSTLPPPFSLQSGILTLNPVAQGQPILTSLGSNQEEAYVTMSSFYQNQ
T1 sequence (Q9JIE6 20-140): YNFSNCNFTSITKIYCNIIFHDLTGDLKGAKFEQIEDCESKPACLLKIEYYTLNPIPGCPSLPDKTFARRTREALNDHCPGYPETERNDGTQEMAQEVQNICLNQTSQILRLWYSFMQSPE

With “recombinant human thymic stromal lymphopoietin (from UniProt Q969D9 29-159) (ligand)” the EC50 of TSLP-driven STAT5 luciferase reporter gene expression in HEK293T cells transfected with TSLPR and IL-7Rα [1] was 1.1 ng/mL.

B1: tezepelumab analogue antibody (antibody, V domains shown)
VH: QMQLVESGGGVVQPGRSLRLSCAASGFTFRTYGMHWVRQAPGKGLEWVAVIWYDGSNKHYADSVKGRFTITRDNSKNTLNLQMNSLRAEDTAVYYCARAPQWELVHEAFDIWGQGTMVTVSS
VL: SYVLTQPPSVSVAPGQTARITCGGNNLGSKSVHWYQQKPGQAPVLVVYDDSDRPSWIPERFSGSNSGNTATLTISRGEAGDEADYYCQVWDSSSDHVVFGGGTKLTVL
notes: heavy chain of tezepelumab as deposited in PDB 5J13; rest of the heavy chain constant region (hinge, Fc) beyond what the PDB entry holds; light chain of tezepelumab as deposited in PDB 5J13; It was captured by anti-Fc probes and detected with anti-human IgG; also called AMG157; MEDI9929; source: Expi293F, transfected, purified (MabSelect SuRe, desalting column)
B1: no binding (tested: 1 μg/mL) (recombinant mouse TSLP); binds [2].
